The record followed here is paper doi:10.1101/2024.08.19.608523 (bioRxiv, 2024).

B1: GAS2-GAR domain (residues 198-314) (domain or fragment)
chain: STGNLLDDAVKRISEDPPCKCPTKFCVERLSQGRYRVGEKILFIRMLHNKHVMVRVGGGWETFAGYLLKHDPCRMLQISRVDGKTSPVQSKSPTLKDMNPDNYLVVSATYKAKKEIK

One data set has as its target microtubules (polymerized porcine brain tubulin) (porcine) (UniProt Q2XVP4). Nature of the data set: co-sedimentation.
“GAS2-GAR G255A (from UniProt P11862 198-314) (domain or fragment)” registered a Kd of 2.69 µM. The same measure, in the same setting: in the case of “GAS2-GAR G255E (from UniProt P11862 198-314) (domain or fragment)” it was 9.6 µM; in that of “GAS2-GAR K266E (from UniProt P11862 198-314) (domain or fragment)”, 10.6 µM. On the same count and under the same terms, as for “GAS2-GAR R242E (from UniProt P11862 198-314) (domain or fragment)”, the figure is 5 µM. For “GAS2-GAR R252E (from UniProt P11862 198-314) (domain or fragment)”, the Kd stood at 47 µM. As for “GAS2-GAR W257E (from UniProt P11862 198-314) (domain or fragment)”, the Kd came out at 27 µM.

Consider B1, for which the Kd is 0.69 µM.

A further data set deals with the molecule itself. Nature of the data set: SEC.
As for B1, the “stoichiometry N” value amounted to 2.
